Residue numbers refer to the chain shown, from its start. Where “and” joins values, the source holds several entries; their conditions need not be identical. Identical values can stand only once. Like-named read-outs stand apart in the source and are kept apart here.
B1: Wild-type human relaxin-2 (ligand)
chain 1: DSWMEEVIKLCGRELVRAQIAICGMSTWS
chain 2: QLYSALANKCCHVGCTKRSLARFC
B2: SEQ ID NO: 496 (Fc fusion)
chain: DKTHTCPPCPAPEAAGGPSVFLFPPKPKDTLMISRTPEVTCVVVDVSHEDPEVKFNWYVDGVEVHNAKTKPREEQYNSTYRVVSVLTVLHQDWLNGKEYKCKVSNKALAAPIEKTISKAKGQPREPQVYTLPPSRDELTKNQVSLTCLVKGFYPSDIAVEWESNGQPENNYKTTPPVLDSDGSFFLYSKLTVDKSRWQQGNVFSCSVLHEALHSHYTQKSLSLSPGKGGSDSWKEEVIKLCGRELVRAQIAICGKSTASDAAGANANAGARQLYSALANKCCHVGCTKRSLARFC
B3: SEQ ID NO: 104 (Fc fusion)
chain: B2 chain with K227E, K234Q, K255Q, N265Q, N267Q, R293Q
B4: SEQ ID NO: 111 (Fc fusion)
chain: B2 chain with K227E, K234Q, N265Q, N267Q, R289Q, R293Q
B5: SEQ ID NO: 118 (Fc fusion)
chain: B2 chain with K227E, K234Q, K255Q, N265Q, N267Q, R289Q, R293Q
B6: SEQ ID NO: 95 (Fc fusion)
chain: B2 chain with K227E, K234Q, N265Q, N267D, R293Q
B7: SEQ ID NO: 98 (Fc fusion)
chain: B2 chain with K227E, K234Q, K255Q, N265D, R293Q
B8: SEQ ID NO: 87 (Fc fusion)
chain: B2 chain with K234Q, N265E, N267E, R293Q

How the values were obtained:
Assay in all cases: cell-based or functional assay
[1] = target: T1, human RXFP1 (human, UniProt Q9HBX9 1-757)
T1 sequence (looked up): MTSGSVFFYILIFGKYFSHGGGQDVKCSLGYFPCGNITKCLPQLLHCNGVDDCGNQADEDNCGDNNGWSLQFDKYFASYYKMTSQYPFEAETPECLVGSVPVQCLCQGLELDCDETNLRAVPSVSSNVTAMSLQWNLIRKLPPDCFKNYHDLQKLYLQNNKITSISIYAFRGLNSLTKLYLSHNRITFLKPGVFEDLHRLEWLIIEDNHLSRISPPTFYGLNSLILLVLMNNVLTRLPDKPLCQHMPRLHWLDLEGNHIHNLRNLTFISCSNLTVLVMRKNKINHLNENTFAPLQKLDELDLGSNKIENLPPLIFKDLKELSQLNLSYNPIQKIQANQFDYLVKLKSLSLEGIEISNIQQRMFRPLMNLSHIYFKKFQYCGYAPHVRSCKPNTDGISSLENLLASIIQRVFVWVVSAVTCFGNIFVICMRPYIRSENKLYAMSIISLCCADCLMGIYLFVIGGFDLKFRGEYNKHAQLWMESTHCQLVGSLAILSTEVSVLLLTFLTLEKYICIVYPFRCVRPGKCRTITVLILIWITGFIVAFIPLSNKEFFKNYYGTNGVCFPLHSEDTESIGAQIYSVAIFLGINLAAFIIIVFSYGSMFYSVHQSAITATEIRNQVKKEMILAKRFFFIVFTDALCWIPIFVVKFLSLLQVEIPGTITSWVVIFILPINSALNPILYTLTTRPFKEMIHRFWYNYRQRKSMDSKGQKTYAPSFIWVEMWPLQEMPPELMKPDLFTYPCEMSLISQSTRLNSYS

[2] = target: T2, rat RXFP1 (rat, UniProt Q6R6I6 1-758)
T2 sequence (looked up): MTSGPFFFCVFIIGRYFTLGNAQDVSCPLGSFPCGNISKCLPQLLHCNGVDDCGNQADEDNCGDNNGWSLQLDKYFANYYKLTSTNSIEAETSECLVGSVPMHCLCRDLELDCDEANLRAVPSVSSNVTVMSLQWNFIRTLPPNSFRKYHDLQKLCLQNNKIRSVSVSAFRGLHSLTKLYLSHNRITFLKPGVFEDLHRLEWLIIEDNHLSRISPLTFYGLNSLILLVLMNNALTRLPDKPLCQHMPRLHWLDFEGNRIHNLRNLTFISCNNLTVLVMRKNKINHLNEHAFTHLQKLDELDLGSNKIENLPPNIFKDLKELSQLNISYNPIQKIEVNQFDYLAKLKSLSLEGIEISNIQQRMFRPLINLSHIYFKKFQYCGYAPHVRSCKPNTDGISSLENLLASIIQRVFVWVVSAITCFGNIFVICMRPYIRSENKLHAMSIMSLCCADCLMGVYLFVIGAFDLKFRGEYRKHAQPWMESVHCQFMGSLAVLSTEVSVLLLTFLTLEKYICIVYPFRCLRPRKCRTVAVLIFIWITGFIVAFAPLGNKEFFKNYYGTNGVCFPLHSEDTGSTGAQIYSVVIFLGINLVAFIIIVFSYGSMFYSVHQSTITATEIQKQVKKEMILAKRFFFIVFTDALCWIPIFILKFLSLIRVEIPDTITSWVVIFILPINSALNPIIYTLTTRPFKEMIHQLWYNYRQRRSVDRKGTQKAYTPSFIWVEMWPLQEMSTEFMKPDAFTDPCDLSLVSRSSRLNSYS

[3] = target: T1, human RXFP1; remark: listed apart in the source
[4] = target: T3, human RXFP2 (human, UniProt Q8WXD0 1-754)
[5] = target: T1, human RXFP1; remark: listed apart in the source
[6] = target: T1, human RXFP1; remark: listed apart in the source
[7] = target: T2, rat RXFP1; remark: listed apart in the source
[8] = target: T1, human RXFP1; remark: listed apart in the source
[9] = target: T4, cynomolgus monkey RXFP1 (cynomolgus monkey, UniProt H9ERA2 1-757 (rhesus entry))
T4 sequence: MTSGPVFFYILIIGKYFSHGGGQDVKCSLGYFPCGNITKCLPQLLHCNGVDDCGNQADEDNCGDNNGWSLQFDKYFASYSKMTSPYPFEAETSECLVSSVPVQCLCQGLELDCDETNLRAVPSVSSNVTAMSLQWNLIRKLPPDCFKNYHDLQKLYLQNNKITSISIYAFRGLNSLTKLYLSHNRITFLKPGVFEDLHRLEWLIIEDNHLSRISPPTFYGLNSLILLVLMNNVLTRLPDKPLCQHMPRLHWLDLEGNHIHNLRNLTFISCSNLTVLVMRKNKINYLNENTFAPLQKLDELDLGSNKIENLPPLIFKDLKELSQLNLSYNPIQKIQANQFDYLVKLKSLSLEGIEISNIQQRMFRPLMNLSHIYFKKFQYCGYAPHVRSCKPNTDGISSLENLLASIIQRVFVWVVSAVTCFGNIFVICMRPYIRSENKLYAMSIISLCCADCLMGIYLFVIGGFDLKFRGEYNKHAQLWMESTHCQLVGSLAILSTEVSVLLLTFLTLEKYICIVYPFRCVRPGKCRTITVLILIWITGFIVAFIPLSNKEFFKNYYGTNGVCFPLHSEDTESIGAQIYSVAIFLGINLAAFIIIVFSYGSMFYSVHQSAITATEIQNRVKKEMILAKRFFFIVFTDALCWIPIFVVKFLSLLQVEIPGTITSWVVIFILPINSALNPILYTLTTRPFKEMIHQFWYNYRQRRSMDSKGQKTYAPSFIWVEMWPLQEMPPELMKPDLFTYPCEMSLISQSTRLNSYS

[10] = target: T2, rat RXFP1; remark: listed apart in the source
[11] = target: T1, human RXFP1; remark: listed apart in the source
[12] = target: T1, human RXFP1; remark: listed apart in the source
[13] = target: T3, human RXFP2; remark: listed apart in the source

T3 sequence (Q8WXD0 whole entry): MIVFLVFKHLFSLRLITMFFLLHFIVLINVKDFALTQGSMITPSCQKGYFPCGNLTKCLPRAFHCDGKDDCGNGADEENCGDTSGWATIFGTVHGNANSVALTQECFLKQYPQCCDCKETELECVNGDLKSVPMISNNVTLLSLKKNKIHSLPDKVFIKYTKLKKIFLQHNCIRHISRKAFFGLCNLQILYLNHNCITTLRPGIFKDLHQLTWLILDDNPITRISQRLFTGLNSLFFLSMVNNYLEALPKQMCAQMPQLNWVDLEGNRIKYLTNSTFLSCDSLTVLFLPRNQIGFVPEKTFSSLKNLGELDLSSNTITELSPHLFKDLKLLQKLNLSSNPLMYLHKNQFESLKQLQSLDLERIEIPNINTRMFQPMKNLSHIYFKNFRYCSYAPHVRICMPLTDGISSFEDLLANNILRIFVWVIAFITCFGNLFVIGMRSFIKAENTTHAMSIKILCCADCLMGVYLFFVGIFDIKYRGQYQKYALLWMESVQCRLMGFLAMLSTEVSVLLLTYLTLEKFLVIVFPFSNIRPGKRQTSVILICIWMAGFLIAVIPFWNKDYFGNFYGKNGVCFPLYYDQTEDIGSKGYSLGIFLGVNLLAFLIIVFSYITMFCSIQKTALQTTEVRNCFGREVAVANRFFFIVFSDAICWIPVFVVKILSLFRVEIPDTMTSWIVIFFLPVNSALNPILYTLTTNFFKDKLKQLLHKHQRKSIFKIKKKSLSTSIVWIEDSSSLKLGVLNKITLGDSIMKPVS

Row | Potency (cAMP, transient hRXFP1 in HEK293) [1] | Transient HEK293 rRXFP1 cAMP EC50 [2] | THP1 (endogenous RXFP1) cAMP EC50 [3] | Transient HEK293 hRXFP1 cAMP EC50 [3] | cAMP response EC50, human RXFP2 stable in CHO-K1 [4] | cAMP response EC50, THP-1 (endogenous RXFP1) [5] | cAMP response EC50, human RXFP1 stable in CHO-K1 [5] | EC50, cAMP response in RXFP1 transfected HEK293 cells [6] | pEC50, cAMP response in RXFP1 transfected HEK293 cells [6] | EC50 for cAMP generation, recombinant rat RXFP1 assay (average) [7] | EC50 for cAMP generation, recombinant human RXFP1 assay (average) [8] | cAMP response EC50, cynomolgus monkey RXFP1 transient in HEK293 [9] | cAMP response EC50, rat RXFP1 transient in HEK293 [10] | cAMP response EC50, human RXFP1 transient in HEK293 [11] | Potency (cAMP, transient hRXFP1 in HEK293) [12] | fold loss of cAMP potency on human RXFP2 against human RXFP1 (CHO-K1, stable) [13] | Binder
1 | 0.1 nM | 0.122 nM | 0.2 nM | 0.039 nM | 10 nM and 90 ng/mL | 0.07 nM and 0.4 ng/mL | 0.2 nM and 1 ng/mL | 0.042 nM | 10.4 | 0.1 nM | 0.04 nM | 0.04 nM and 0.2 ng/mL | 0.1 nM and 0.6 ng/mL | 0.05 nM and 0.3 ng/mL |  |  | B1
2 | 0.2 nM | 1.15 nM | 2 nM | 0.19 nM |  |  |  |  |  | 1 nM | 0.2 nM |  |  |  |  |  | B2
3 | 2.8 nM | 6.74 nM | 11 nM | 6.17 nM |  |  |  |  |  |  |  |  |  |  |  |  | B3
4 | 3.5 nM | 6.74 nM | 80 nM | 5.94 nM |  |  |  |  |  |  |  |  |  |  |  |  | B4
5 | 10.1 nM | 20.3 nM | 200 nM | 25 nM |  |  |  |  |  |  |  |  |  |  |  |  | B5
6 | 6.8 nM | 13.5 nM | 26 nM | 10.9 nM |  |  |  |  |  |  |  |  |  |  |  |  | B6
7 | 8.8 nM | 29.1 nM | 100 nM | 21.5 nM |  |  |  |  |  |  |  |  |  |  |  |  | B7
8 | 5.2 nM | 10.3 nM | 25 nM | 8.7 nM | > 2 µM and > 1e+06 ng/mL | 10 nM and 900 ng/mL | 40 nM and 2000 ng/mL |  |  | 35 nM | 10 nM | 10 nM and 800 ng/mL | 30 nM and 2000 ng/mL | 10 nM and 800 ng/mL | 8.5 nM | ~100 fold | B8

From US20250333467A1 (TECTONIC OPERATING, published 2025)
